From the supplement of paper PMC9112550, “Optimization of the antimicrobial peptide Bac7 by deep mutational scanning” (BMC Biology, 2022)

Tested on: Escherichia coli TOP10
Experiment: shrunken log2 fold change of peptide-encoding DNA abundance (4.5 h post-induction vs induction); higher = less antimicrobial activity (less host growth inhibition)
Details: time post-induction: 4.5 h; library: site-saturation at positions 5, 18, 19, 20
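Note: peptides expressed intracellularly from a pBAD plasmid library in pooled LB shake-flask culture, induced with 0.3% L-arabinose, DNA abundance read by NGS, three biological replicates, DESeq2 with apeglm shrinkage.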

In order of falling “shrunken log2 fold change” value:
1. RRIRKRPPRLPRPRPRPELAPRP  2.83
2. RRIRMRPPRLPRPRPRPECGPRP  2.7
3. RRIRMRPPRLPRPRPRPMRAPRP  2.56
4. RRIRKRPPRLPRPRPRPHKCPRP  2.12
5. RRIRWRPPRLPRPRPRPIWFPRP  1.96
6. RRIRGRPPRLPRPRPRPDDQPRP  1.92
7. RRIRKRPPRLPRPRPRPQTPPRP  1.39
8. RRIRDRPPRLPRPRPRPECMPRP  1.07
9. RRIRMRPPRLPRPRPRPTHAPRP  0.995
10. RRIRRRPPRLPRPRPRPMMTPRP  0.975
11. RRIRCRPPRLPRPRPRPRGDPRP  0.867
12. RRIRKRPPRLPRPRPRPHGWPRP  0.865
13. RRIRMRPPRLPRPRPRPTHDPRP  0.81
14. RRIRGRPPRLPRPRPRPGFVPRP  0.768
15. RRIRWRPPRLPRPRPRPRPSPRP  0.766
16. RRIRKRPPRLPRPRPRPNFHPRP  0.676
17. RRIRMRPPRLPRPRPRPQPDPRP  0.658
18. RRIRGRPPRLPRPRPRPMGQPRP  0.651
19. RRIRERPPRLPRPRPRPGFAPRP  0.604
20. RRIRKRPPRLPRPRPRPPPCPRP  0.585
21. RRIRGRPPRLPRPRPRPAHKPRP  0.551
22. RRIRNRPPRLPRPRPRPPQKPRP  0.544
23. RRIRWRPPRLPRPRPRPTGRPRP  0.536
24. RRIRPRPPRLPRPRPRPTRMPRP  0.479
25. RRIRLRPPRLPRPRPRPTRSPRP  0.467
26. RRIRPRPPRLPRPRPRPKCFPRP  0.434
27. RRIRRRPPRLPRPRPRPRICPRP  0.414
28. RRIRVRPPRLPRPRPRPECVPRP  0.399
29. RRIRMRPPRLPRPRPRPRQVPRP  0.388
30. RRIRRRPPRLPRPRPRPLWEPRP  0.378
31. RRIRCRPPRLPRPRPRPAAGPRP  0.378
32. RRIRARPPRLPRPRPRPIGQPRP  0.34
33. RRIRVRPPRLPRPRPRPRALPRP  0.307
34. RRIRRRPPRLPRPRPRPKREPRP  0.304
35. RRIRGRPPRLPRPRPRPFWRPRP  0.297
36. RRIRIRPPRLPRPRPRPERCPRP  0.296
37. RRIRDRPPRLPRPRPRPQWWPRP  0.274
38. RRIRGRPPRLPRPRPRPQKIPRP  0.274
39. RRIRCRPPRLPRPRPRPVGGPRP  0.273
40. RRIRMRPPRLPRPRPRPLEPPRP  0.261
41. RRIRKRPPRLPRPRPRPGVIPRP  0.251
42. RRIRMRPPRLPRPRPRPVQMPRP  0.247
43. RRIRWRPPRLPRPRPRPFVLPRP  0.231
44. RRIRKRPPRLPRPRPRPFFHPRP  0.203
45. RRIRRRPPRLPRPRPRPMAIPRP  0.202
46. RRIRKRPPRLPRPRPRPKMNPRP  0.2
47. RRIRRRPPRLPRPRPRPFQWPRP  0.194
48. RRIRMRPPRLPRPRPRPPCHPRP  0.186
49. RRIRLRPPRLPRPRPRPRMNPRP  0.179
50. RRIRDRPPRLPRPRPRPTMWPRP  0.176
51. RRIRNRPPRLPRPRPRPHDHPRP  0.171
52. RRIRSRPPRLPRPRPRPATQPRP  0.168
53. RRIRFRPPRLPRPRPRPQMAPRP  0.168
54. RRIRVRPPRLPRPRPRPACQPRP  0.168
55. RRIRARPPRLPRPRPRPWLAPRP  0.162
56. RRIRVRPPRLPRPRPRPLKAPRP  0.157
57. RRIRTRPPRLPRPRPRPAVLPRP  0.153
58. RRIRTRPPRLPRPRPRPGEQPRP  0.15
59. RRIRGRPPRLPRPRPRPHEFPRP  0.144
60. RRIRLRPPRLPRPRPRPLWAPRP  0.129
61. RRIRPRPPRLPRPRPRPAMSPRP  0.128
62. RRIRIRPPRLPRPRPRPRLQPRP  0.123
63. RRIRDRPPRLPRPRPRPQRLPRP  0.116
64. RRIRDRPPRLPRPRPRPKMLPRP  0.11
65. RRIRIRPPRLPRPRPRPTQQPRP  0.0936
66. RRIRERPPRLPRPRPRPARSPRP  0.0919
67. RRIRERPPRLPRPRPRPVKHPRP  0.0875
68. RRIRGRPPRLPRPRPRPHLFPRP  0.0842
69. RRIRYRPPRLPRPRPRPGWPPRP  0.0827
70. RRIRVRPPRLPRPRPRPDAWPRP  0.0757
71. RRIRERPPRLPRPRPRPICAPRP  0.0742
72. RRIRYRPPRLPRPRPRPTGPPRP  0.0492
73. RRIRWRPPRLPRPRPRPVIEPRP  0.0398
74. RRIRYRPPRLPRPRPRPRMAPRP  0.0395
75. RRIRKRPPRLPRPRPRPKRQPRP  0.0282
76. RRIRVRPPRLPRPRPRPADQPRP  0.0278
77. RRIRKRPPRLPRPRPRPDGKPRP  0.0268
78. RRIRNRPPRLPRPRPRPQVCPRP  0.0261
79. RRIRWRPPRLPRPRPRPMVVPRP  0.026
80. RRIRVRPPRLPRPRPRPMWPPRP  0.0245
81. RRIRMRPPRLPRPRPRPFEEPRP  0.0197
82. RRIRQRPPRLPRPRPRPAHCPRP  0.0134
83. RRIRARPPRLPRPRPRPQMCPRP  0.00812
84. RRIRDRPPRLPRPRPRPWSSPRP  0.0046
85. RRIRLRPPRLPRPRPRPIDWPRP  -0.00448
86. RRIRYRPPRLPRPRPRPETQPRP  -0.00798
87. RRIRYRPPRLPRPRPRPCSNPRP  -0.00822
88. RRIRDRPPRLPRPRPRPDSRPRP  -0.00898
89. RRIRDRPPRLPRPRPRPIMWPRP  -0.00999
90. RRIRMRPPRLPRPRPRPWQQPRP  -0.0113
91. RRIRNRPPRLPRPRPRPEVHPRP  -0.0167
92. RRIRWRPPRLPRPRPRPHCFPRP  -0.0202
93. RRIRIRPPRLPRPRPRPMGTPRP  -0.0384
94. RRIRQRPPRLPRPRPRPLCSPRP  -0.0385
95. RRIRVRPPRLPRPRPRPVHVPRP  -0.0459
96. RRIRWRPPRLPRPRPRPCRGPRP  -0.0518
97. RRIRTRPPRLPRPRPRPTESPRP  -0.0539
98. RRIRLRPPRLPRPRPRPHSRPRP  -0.0563
99. RRIRTRPPRLPRPRPRPFMGPRP  -0.0574
100. RRIRRRPPRLPRPRPRPMYQPRP  -0.058
101. RRIRGRPPRLPRPRPRPCHLPRP  -0.0648
102. RRIRIRPPRLPRPRPRPLQKPRP  -0.0683
103. RRIRSRPPRLPRPRPRPMCPPRP  -0.0743
104. RRIRSRPPRLPRPRPRPENQPRP  -0.0853
105. RRIRPRPPRLPRPRPRPCKSPRP  -0.0854
106. RRIRQRPPRLPRPRPRPFFQPRP  -0.0889
107. RRIRERPPRLPRPRPRPRMLPRP  -0.0942
108. RRIRWRPPRLPRPRPRPWHWPRP  -0.101
109. RRIRSRPPRLPRPRPRPYPKPRP  -0.119
110. RRIRLRPPRLPRPRPRPNKRPRP  -0.121
111. RRIRNRPPRLPRPRPRPRNYPRP  -0.123
112. RRIRLRPPRLPRPRPRPDWSPRP  -0.124
113. RRIRPRPPRLPRPRPRPQDLPRP  -0.13
114. RRIRRRPPRLPRPRPRPVSTPRP  -0.134
115. RRIRCRPPRLPRPRPRPCGYPRP  -0.144
116. RRIRKRPPRLPRPRPRPWPYPRP  -0.146
117. RRIRMRPPRLPRPRPRPNYDPRP  -0.149
118. RRIRIRPPRLPRPRPRPDWSPRP  -0.161
119. RRIRPRPPRLPRPRPRPCVFPRP  -0.164
120. RRIRDRPPRLPRPRPRPLFIPRP  -0.184
121. RRIRTRPPRLPRPRPRPWCIPRP  -0.19
122. RRIRCRPPRLPRPRPRPMWNPRP  -0.195
123. RRIRDRPPRLPRPRPRPCECPRP  -0.201
124. RRIRYRPPRLPRPRPRPQLYPRP  -0.206
125. RRIRKRPPRLPRPRPRPCPIPRP  -0.212
126. RRIRIRPPRLPRPRPRPAKVPRP  -0.224
127. RRIRCRPPRLPRPRPRPCKYPRP  -0.227
128. RRIRYRPPRLPRPRPRPNALPRP  -0.236
129. RRIRCRPPRLPRPRPRPMFMPRP  -0.246
130. RRIRDRPPRLPRPRPRPLSNPRP  -0.247
131. RRIRPRPPRLPRPRPRPVPYPRP  -0.253
132. RRIRVRPPRLPRPRPRPTNFPRP  -0.287
133. RRIRHRPPRLPRPRPRPNGTPRP  -0.297
134. RRIRHRPPRLPRPRPRPIYQPRP  -0.316
135. RRIRFRPPRLPRPRPRPFCQPRP  -0.317
136. RRIRWRPPRLPRPRPRPWYYPRP  -0.321
137. RRIRVRPPRLPRPRPRPETSPRP  -0.369
138. RRIRYRPPRLPRPRPRPQSEPRP  -0.37
139. RRIRCRPPRLPRPRPRPDLMPRP  -0.424
140. RRIRIRPPRLPRPRPRPKIIPRP  -0.468
141. RRIRSRPPRLPRPRPRPIKMPRP  -0.47
142. RRIRLRPPRLPRPRPRPYYLPRP  -0.477
143. RRIRQRPPRLPRPRPRPHMIPRP  -0.515
144. RRIRCRPPRLPRPRPRPCSFPRP  -0.57
145. RRIRTRPPRLPRPRPRPYHHPRP  -0.59
146. RRIRNRPPRLPRPRPRPNYQPRP  -0.599
147. RRIRCRPPRLPRPRPRPNIPPRP  -0.822
148. RRIRWRPPRLPRPRPRPYQRPRP  -0.85
149. RRIRHRPPRLPRPRPRPDNSPRP  -1.1
150. RRIRVRPPRLPRPRPRPHCLPRP  -1.63
